Data as given in the supplement of paper PMC10567573.

B1: KLHDC10 (parent)
chain: CPIIRIPNRFLRGHRPPPARSGHR

Variants of: B1
Assay: protein stability index of a GFP-peptide fusion (GPS, HEK-293T) (PSI 1-6); higher = more stable
Settings: c terminus: a fixed tail appended
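Also: lentivirally expressed fusions sorted by FACS into six bins by GFP to DsRed ratio, PSI derived from sequencing read proportions per bin multiplied by bin number.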

Compared with CPIIRIPNRWLRGHRPPPARSGHR [F10W], CPIIRIPNRKLRGHRPPPARSGHR [F10K] is lower in protein stability index: 2.38 for the first, 1.71 for the second.

Going from CPIIRIPNRRLRGHRPPPARSGHR [F10R] to CPIIRIPNRVLRGHRPPPARSGHR [F10V], the protein stability index falls from 2.65 to 1.4.

First: CPIIRIPNRELRGHRPPPARSGHR [F10E]
Second: CPIIRIPNRGLRGHRPPPARSGHR [F10G]
The protein stability index of the first is lower: 1.71 for the first, 1.81 for the second.

Going from CPIIRIPNRHLRGHRPPPARSGHR [F10H] to CPIIRIPNRALRGHRPPPARSGHR [F10A], the protein stability index rises from 2.25 to 2.85.

First: CPIIRIPNRILRGHRPPPARSGHR [F10I]
Second: CPIIRIPNRSLRGHRPPPARSGHR [F10S]
The protein stability index of the first is higher: 2.46 for the first, 2.12 for the second.

Going from CPIIRIPNRQLRGHRPPPARSGHR [F10Q] to CPIIRIPNRLLRGHRPPPARSGHR [F10L], the protein stability index falls from 2.63 to 2.48.

First: CPIIRIPNRPLRGHRPPPARSGHR [F10P]
Second: CPIIRIPNRCLRGHRPPPARSGHR [F10C]
The protein stability index of the first is lower: 1.45 for the first, 2.48 for the second.

Going from CPIIRIPNRYLRGHRPPPARSGHR [F10Y] to CPIIRIPNRMLRGHRPPPARSGHR [F10M], the protein stability index rises from 1.8 to 1.82.

Compared with CPIIRIPNRTLRGHRPPPARSGHR [F10T], CPIIRIPNGFLRGHRPPPARSGHR [R9G] is lower in protein stability index: 2.11 for the first, 1.53 for the second.

First: CPIIRIPNFFLRGHRPPPARSGHR [R9F]
Second: CPIIRIPNVFLRGHRPPPARSGHR [R9V]
The protein stability index of the first is higher: 2.94 for the first, 2.43 for the second.

Compared with CPIIRIPNSFLRGHRPPPARSGHR [R9S], CPIIRIPNLFLRGHRPPPARSGHR [R9L] is higher in protein stability index: 2.12 for the first, 2.36 for the second.

Compared with CPIIRIPNTFLRGHRPPPARSGHR [R9T], CPIIRIPNNFLRGHRPPPARSGHR [R9N] is higher in protein stability index: 1.46 for the first, 2.01 for the second.

First: CPIIRIPNYFLRGHRPPPARSGHR [R9Y]
Second: CPIIRIPNPFLRGHRPPPARSGHR [R9P]
The protein stability index of the first is lower: 1.71 for the first, 3.47 for the second.

Going from CPIIRIPNHFLRGHRPPPARSGHR [R9H] to CPIIRIPNAFLRGHRPPPARSGHR [R9A], the protein stability index falls from 2.32 to 1.61.

Compared with CPIIRIPNQFLRGHRPPPARSGHR [R9Q], CPIIRIPNMFLRGHRPPPARSGHR [R9M] is lower in protein stability index: 2.47 for the first, 1.42 for the second.

Compared with CPIIRIPNDFLRGHRPPPARSGHR [R9D], CPIIRIPNCFLRGHRPPPARSGHR [R9C] is higher in protein stability index: 2.1 for the first, 2.48 for the second.

Going from CPIIRIPNKFLRGHRPPPARSGHR [R9K] to CPIIRIPNRFLAGHRPPPARSGHR [R12A], the protein stability index rises from 1.37 to 1.71.

First: CPIIRIPNRFLIGHRPPPARSGHR [R12I]
Second: CPIIRIPNRFLKGHRPPPARSGHR [R12K]
The protein stability index of the first is higher: 2.32 for the first, 2.09 for the second.

Compared with CPIIRIPNRFLDGHRPPPARSGHR [R12D], CPIIRIPNRFLHGHRPPPARSGHR [R12H] is higher in protein stability index: 1.92 for the first, 2.69 for the second.

Going from CPIIRIPNRFLNGHRPPPARSGHR [R12N] to CPIIRIPNRFLGGHRPPPARSGHR [R12G], the protein stability index falls from 2.27 to 1.8.

Compared with CPIIRIPNRFLCGHRPPPARSGHR [R12C], CPIIRIPNRFLMGHRPPPARSGHR [R12M] is lower in protein stability index: 1.28 for the first, 1.06 for the second.

Compared with CPIIRIPNRFLEGHRPPPARSGHR [R12E], CPIIRIPNRFLLGHRPPPARSGHR [R12L] is lower in protein stability index: 2.47 for the first, 2.25 for the second.

Compared with CPIIRIPNRFLFGHRPPPARSGHR [R12F], CPIIRIVNRFLRGHRPPPARSGHR [P7V] is higher in protein stability index: 1.75 for the first, 1.86 for the second.

First: CPIIRIENRFLRGHRPPPARSGHR [P7E]
Second: CPIIRISNRFLRGHRPPPARSGHR [P7S]
The protein stability index of the first is lower: 1.57 for the first, 3.13 for the second.

Compared with CPIIRIRNRFLRGHRPPPARSGHR [P7R], CPIIRIKNRFLRGHRPPPARSGHR [P7K] is lower in protein stability index: 3.66 for the first, 2.7 for the second.

First: CPIIRILNRFLRGHRPPPARSGHR [P7L]
Second: CPIIRIYNRFLRGHRPPPARSGHR [P7Y]
The protein stability index of the first is higher: 2.25 for the first, 2.11 for the second.

Compared with CPIIRIQNRFLRGHRPPPARSGHR [P7Q], CPIIRIWNRFLRGHRPPPARSGHR [P7W] is higher in protein stability index: 3.04 for the first, 3.51 for the second.

Compared with CPIIRIINRFLRGHRPPPARSGHR [P7I], CPIIRIMNRFLRGHRPPPARSGHR [P7M] is higher in protein stability index: 2.39 for the first, 3.29 for the second.

Compared with CPIIRINNRFLRGHRPPPARSGHR [P7N], CPIIRIHNRFLRGHRPPPARSGHR [P7H] is higher in protein stability index: 2.6 for the first, 3.62 for the second.

Going from CPIIRITNRFLRGHRPPPARSGHR [P7T] to CPIIRIFNRFLRGHRPPPARSGHR [P7F], the protein stability index rises from 2.23 to 2.28.

First: CPIIRIGNRFLRGHRPPPARSGHR [P7G]
Second: CPIIRIPNRFDRGHRPPPARSGHR [L11D]
The protein stability index of the first is higher: 3.71 for the first, 1.42 for the second.

Going from CPIIRIPNRFYRGHRPPPARSGHR [L11Y] to CPIIRIPNRFHRGHRPPPARSGHR [L11H], the protein stability index falls from 2 to 1.69.

First: CPIIRIPNRFTRGHRPPPARSGHR [L11T]
Second: CPIIRIPNRFMRGHRPPPARSGHR [L11M]
The protein stability index of the first is lower: 1.96 for the first, 2.89 for the second.

First: CPIIRIPNRFVRGHRPPPARSGHR [L11V]
Second: CPIIRIPNRFKRGHRPPPARSGHR [L11K]
The protein stability index of the first is lower: 2.83 for the first, 3.08 for the second.

Going from CPIIRIPNRFGRGHRPPPARSGHR [L11G] to CPIIRIPNRFCRGHRPPPARSGHR [L11C], the protein stability index falls from 2.3 to 1.4.

First: CPIIRIPNRFFRGHRPPPARSGHR [L11F]
Second: CPIIRIPNRFSRGHRPPPARSGHR [L11S]
The protein stability index of the first is lower: 1.84 for the first, 2.46 for the second.

First: CPIIRIPNRFERGHRPPPARSGHR [L11E]
Second: CPIIRIPNRFQRGHRPPPARSGHR [L11Q]
The protein stability index of the first is lower: 1.31 for the first, 1.35 for the second.

Compared with CPIIRIPNRFRRGHRPPPARSGHR [L11R], CPIIRIPNRFWRGHRPPPARSGHR [L11W] is lower in protein stability index: 2.54 for the first, 1.7 for the second.

Going from CPIIRIPLRFLRGHRPPPARSGHR [N8L] to CPIIRIPCRFLRGHRPPPARSGHR [N8C], the protein stability index falls from 2.21 to 1.94.

Going from CPIIRIPHRFLRGHRPPPARSGHR [N8H] to CPIIRIPQRFLRGHRPPPARSGHR [N8Q], the protein stability index falls from 2.69 to 1.3.

First: CPIIRIPMRFLRGHRPPPARSGHR [N8M]
Second: CPIIRIPFRFLRGHRPPPARSGHR [N8F]
The protein stability index of the first is higher: 1.97 for the first, 1.81 for the second.

First: CPIIRIPARFLRGHRPPPARSGHR [N8A]
Second: CPIIRIPIRFLRGHRPPPARSGHR [N8I]
The protein stability index of the first is lower: 1.46 for the first, 2.36 for the second.

First: CPIIRIPVRFLRGHRPPPARSGHR [N8V]
Second: CPIIRIPDRFLRGHRPPPARSGHR [N8D]
The protein stability index of the first is higher: 2.79 for the first, 2.15 for the second.

First: CPIIRIPYRFLRGHRPPPARSGHR [N8Y]
Second: CPIIRIPRRFLRGHRPPPARSGHR [N8R]
The protein stability index of the first is lower: 2.07 for the first, 2.54 for the second.

Going from CPIIRIPTRFLRGHRPPPARSGHR [N8T] to CPIIRIPGRFLRGHRPPPARSGHR [N8G], the protein stability index falls from 2.52 to 1.38.

Going from CPIIRIPSRFLRGHRPPPARSGHR [N8S] to CPIIRIPWRFLRGHRPPPARSGHR [N8W], the protein stability index rises from 2.44 to 2.59.

Going from CPIIRIPERFLRGHRPPPARSGHR [N8E] to CPIIRIPKRFLRGHRPPPARSGHR [N8K], the protein stability index rises from 2.15 to 2.42.
